The assay deals with rice storage protein glutelin B1 (rice) (UniProt P14323).

pepsin (enzyme): the degradation by pepsin treatment (Western blot) was found to be 90 % degraded.

Values taken from US20070192906A1.
